# Experimental data taken from patent US20220143148A1, “COMPOSITIONS AND METHODS FOR MODULATING CGRP SIGNALING TO REGULATE INTESTINAL INNATE LYMPHOID CELLS” (The Broad Institute, Inc., priority 2019, published 2022).
# B1: OVA (protein, UniProt P01012 2-386, looked up)
# Ovalbumin: GSIGAASMEFCFDVFKELKVHHANENIFYCPIAIMSALAMVYLGAKDSTRTQINKVVRFDKLPGFGDSIEAQCGTSVNVHSSLRDILNQITKPNDVYSFSLASRLYAEERYPILPEYLQCVKELYRGGLEPINFQTAADQARELINSWVESQTNGIIRNVLQPSSVDSQTAMVLVNAIVFKGLWEKAFKDEDTQAMPFRVTEQESKPVQMMYQIGLFRVASMASEKMKILELPFASGTMSMLVLLPDEVSGLEQLESIINFEKLTEWTSSNVMEERKIKVYLPRMKMEEKYNLTSVLMAMGITDVFSSSANLSGISSAESLKISQAVHAAHAEINEAGREVVGSAEAGVDAASVSEEFRADHPFLFCIKHIATNAVLFFGRCVSP
# Test system: small intestinal immune cells
# Experiment: Droplet-based scRNA-seq of small intestinal immune cells (LP and PP), OVA vs PBS, clustering and differential expression
# Assay type: in vivo, mouse
# Excerpt: To comprehensively characterize small intestinal immune cells, Applicants generated scRNA-Seq profiles for 58,067 immune cells collected from lamina propria (LP) and Peyer's patch (PP) regions at steady state and after induction of a type 2 inflammatory reaction to ovalbumin (OVA) (Brandt et al., 2003) (FIGS. 1A and 8A). To ensure sufficient representation of rare cells, Applicants combined a normalization strategy—removing by flow sorting either a portion of IgD+ naïve B cells, which are the most abundant cell type in PPs, or all CD19+ and CD3+ T cells (FIG. 8B, Methods)—with profiling of a sufficiently large number of cells number (P>0.99 to recover at least 15 cells from each cluster, Methods) by massively parallel scRNA-seq (Haber et al., 2017) (Methods). Applicants obtained 36,797 and 21,270 high quality cells passing initial filtering (Methods) from PP and LP regions, respectively.
# Overall, Applicants annotated 27 cell subsets across the two compartments, spanning T cells, B cells, ILCs, dendritic cells (DCs), myeloid cells and stromal cells, in frequencies ranging from 0.07% to 14%. Briefly, Applicants first partitioned the cells from the PP regions by unsupervised clustering (Methods) into 46 clusters, retained the 97% of cells that were robustly assigned cell identities in each cluster (Methods), assigned the cells from the LP regions to the 46 clusters using a classifier (Methods), and visualized the data with scvis (Ding et al., 2018), a deep generative model-based method (FIGS. 1B and 8C, Methods). Next, Applicants identified genes that were differentially expressed between the cells in each cluster and the remaining cells (Table 1, Methods), as well as between pairs of clusters (Table 2), to elucidate identities of similar cell types/states. Applicants excluded from downstream analysis clusters mostly consisting of contaminants from epithelium, likely doublets, or cells with a small number of Unique Molecular Identifiers (UMIs) (FIGS. 1C and 8D), or lacking distinct markers (Methods). Altogether, Applicants retained 27 clusters spanning 85% of the cells and each associated with distinct marker genes (FIG. 8E, Methods).
# To induce allergic reaction to OVA, 6 to 7 weeks old mice were sensitized twice, two weeks apart, with 50 μg of OVA plus 1 mg of aluminum potassium sulfate adjuvant via intraperitoneal injection. Two weeks later, mice were orally administered with 50 mg of OVA on every other day for a total of five times. 1 μg of α-CGRP peptide was administered simultaneously when indicated. Mice were deprived of food for 3-4 hours in cages with wood chip bedding for limiting antigen degradation in the stomach before each intragastric challenge.
# Isolation of cells from Peyer's patches (PPs). Peyer's patches (PPs) were carefully dissected from the small intestine under a stereo microscope using a fine scissor, pierced once with a fine forcep. Tissues were digested in freshly made digestion buffer (RPMI-1640 containing 100 μg/ml Liberase™ and 50 μg/ml DNase I at 37° C. on a roto-mixer. After 15 min, tissues were very gently mixed using a 1 ml pipette. The supernatant was collected and added to ice-cold MACS buffer (pH 7.4; PBS plus 2% FCS and 2 mM EDTA). Pre-warmed (37° C.) fresh digestion buffer was added to the remaining tissues. After rotation at 37° C. for 15 min, the mixture was vigorously mixed using a 1 ml pipette for 1 min. Supernatants from the two steps were combined and passed through 70 μm filters and stained for FACS (below).
# Isolation of cells from the lamina propria (LP). The small intestines were opened longitudinally and washed in ice-cold PBS. For scRNA-seq, roughly 0.5 cm of fragments from each of the distal, middle and proximal regions without visible PPs were collected. Epithelial cells were dissociated by tissue rotation in pre-warmed (37° C.) PBS containing 10 mM EDTA at 37° C. for 15 min, followed by additional incubation on ice for 15 min. Tissues were then shaken vigorously. […]
molecule,measurement,setting,value
B1,Tsc22d3 LN (average fold change),"PP, cluster ID 9, OVA vs PBS",1.031
same,Tubb5 LN (average fold change),"PP, cluster ID 9, OVA vs PBS",−0.244
same,Uba52 LN (average fold change),"PP, cluster ID 9, OVA vs PBS",0.365
same,Ubb LN (average fold change),"PP, cluster ID 9, OVA vs PBS",−0.190
same,Wdr89 LN (average fold change),"PP, cluster ID 9, OVA vs PBS",0.469
same,Zfp36l2 LN (average fold change),"PP, cluster ID 9, OVA vs PBS",1.590
same,1110059E24Rik percentage of expressing cells in OVA-treated group,"PP, cluster ID 10",0.507
same,Apobec1 percentage of expressing cells in OVA-treated group,"PP, cluster ID 10",0.807
same,Basp1 percentage of expressing cells in OVA-treated group,"PP, cluster ID 10",0.755
same,Btg1 percentage of expressing cells in OVA-treated group,"PP, cluster ID 10",0.985
same,Cd47 percentage of expressing cells in OVA-treated group,"PP, cluster ID 10",0.602
same,Crlf3 percentage of expressing cells in OVA-treated group,"PP, cluster ID 10",0.658
same,Ddit4 percentage of expressing cells in OVA-treated group,"PP, cluster ID 10",0.296
same,Dusp1 percentage of expressing cells in OVA-treated group,"PP, cluster ID 10",0.451
same,Egln2 percentage of expressing cells in OVA-treated group,"PP, cluster ID 10",0.558
same,Hspa8 percentage of expressing cells in OVA-treated group,"PP, cluster ID 10",0.975
same,Igha percentage of expressing cells in OVA-treated group,"PP, cluster ID 10",0.405
same,Napsa percentage of expressing cells in OVA-treated group,"PP, cluster ID 10",0.776
same,Ppp1r21 percentage of expressing cells in OVA-treated group,"PP, cluster ID 10",0.165
same,Rsrp1 percentage of expressing cells in OVA-treated group,"PP, cluster ID 10",0.722
same,Sesn1 percentage of expressing cells in OVA-treated group,"PP, cluster ID 10",0.402
same,Sh3glb2 percentage of expressing cells in OVA-treated group,"PP, cluster ID 10",0.187
same,Tsc22d3 percentage of expressing cells in OVA-treated group,"PP, cluster ID 10",0.689
same,Ttc7 percentage of expressing cells in OVA-treated group,"PP, cluster ID 10",0.244
same,Uba52 percentage of expressing cells in OVA-treated group,"PP, cluster ID 10",0.985
same,Zfp36l2 percentage of expressing cells in OVA-treated group,"PP, cluster ID 10",0.68
same,1110059E24Rik LN (average fold change),"PP, cluster ID 10, OVA vs PBS",0.715
same,Apobec1 LN (average fold change),"PP, cluster ID 10, OVA vs PBS",0.309
same,Basp1 LN (average fold change),"PP, cluster ID 10, OVA vs PBS",−0.516
same,Btg1 LN (average fold change),"PP, cluster ID 10, OVA vs PBS",0.438
same,Cd47 LN (average fold change),"PP, cluster ID 10, OVA vs PBS",0.638
same,Crlf3 LN (average fold change),"PP, cluster ID 10, OVA vs PBS",0.396
same,Ddit4 LN (average fold change),"PP, cluster ID 10, OVA vs PBS",0.864
same,Dusp1 LN (average fold change),"PP, cluster ID 10, OVA vs PBS",0.614
same,Egln2 LN (average fold change),"PP, cluster ID 10, OVA vs PBS",0.624
same,Hspa8 LN (average fold change),"PP, cluster ID 10, OVA vs PBS",−0.286
same,Igha LN (average fold change),"PP, cluster ID 10, OVA vs PBS",0.162
same,Napsa LN (average fold change),"PP, cluster ID 10, OVA vs PBS",0.374
same,Ppp1r21 LN (average fold change),"PP, cluster ID 10, OVA vs PBS",1.045
same,Rsrp1 LN (average fold change),"PP, cluster ID 10, OVA vs PBS",−0.187
same,Sesn1 LN (average fold change),"PP, cluster ID 10, OVA vs PBS",1.071
same,Sh3glb2 LN (average fold change),"PP, cluster ID 10, OVA vs PBS",0.383
same,Tsc22d3 LN (average fold change),"PP, cluster ID 10, OVA vs PBS",1.088
same,Ttc7 LN (average fold change),"PP, cluster ID 10, OVA vs PBS",1.338
same,Uba52 LN (average fold change),"PP, cluster ID 10, OVA vs PBS",0.287
same,Zfp36l2 LN (average fold change),"PP, cluster ID 10, OVA vs PBS",1.856
same,Jund percentage of expressing cells in OVA-treated group,"PP, cluster ID 11",0.855
same,Jund LN (average fold change),"PP, cluster ID 11, OVA vs PBS",−0.624
same,1600014C10Rik: percentage of expressing cells in OVA-treated group,"cluster ID 4, PP",0.185
same,2010300C02Rik: percentage of expressing cells in OVA-treated group,"cluster ID 4, PP",0.518
same,2310001H17Rik: percentage of expressing cells in OVA-treated group,"cluster ID 4, PP",0.214
same,4921524J17Rik: percentage of expressing cells in OVA-treated group,"cluster ID 4, PP",0.161
same,Alyref: percentage of expressing cells in OVA-treated group,"cluster ID 4, PP",0.141
same,Amd1: percentage of expressing cells in OVA-treated group,"cluster ID 4, PP",0.192
same,Asb2: percentage of expressing cells in OVA-treated group,"cluster ID 4, PP",0.548
same,Azin1: percentage of expressing cells in OVA-treated group,"cluster ID 4, PP",0.135
same,Bin3: percentage of expressing cells in OVA-treated group,"cluster ID 4, PP",0.235
same,Bzw1: percentage of expressing cells in OVA-treated group,"cluster ID 4, PP",0.321
same,Cacybp: percentage of expressing cells in OVA-treated group,"cluster ID 4, PP",0.293
same,Cd69: percentage of expressing cells in OVA-treated group,"cluster ID 4, PP",0.737
same,Cdkn1a: percentage of expressing cells in OVA-treated group,"cluster ID 4, PP",0.256
same,Clec2d: percentage of expressing cells in OVA-treated group,"cluster ID 4, PP",0.261
same,Cwc25: percentage of expressing cells in OVA-treated group,"cluster ID 4, PP",0.12
same,D16Ertd472e: percentage of expressing cells in OVA-treated group,"cluster ID 4, PP",0.175
same,Dnaja1: percentage of expressing cells in OVA-treated group,"cluster ID 4, PP",0.705
same,Dnajb9: percentage of expressing cells in OVA-treated group,"cluster ID 4, PP",0.18
same,Egln3: percentage of expressing cells in OVA-treated group,"cluster ID 4, PP",0.172
same,Fam46a: percentage of expressing cells in OVA-treated group,"cluster ID 4, PP",0.099
same,Fibp: percentage of expressing cells in OVA-treated group,"cluster ID 4, PP",0.178
same,Furin: percentage of expressing cells in OVA-treated group,"cluster ID 4, PP",0.382
same,Gatad1: percentage of expressing cells in OVA-treated group,"cluster ID 4, PP",0.155
same,Gcnt2: percentage of expressing cells in OVA-treated group,"cluster ID 4, PP",0.144
same,Gimap3: percentage of expressing cells in OVA-treated group,"cluster ID 4, PP",0.536
same,Git2: percentage of expressing cells in OVA-treated group,"cluster ID 4, PP",0.3
same,Gnb1: percentage of expressing cells in OVA-treated group,"cluster ID 4, PP",0.419
